{"source": "paper PMC8096265", "about": "“A functional LSD1 coregulator screen reveals a novel transcriptional regulatory cascade connecting R-loop homeostasis with epigenetic regulation” (Nucleic Acids Research, 2021)", "binders": {"B1": {"name": "GST-DDX19A (recombinant full-length DEAD-box helicase 19A) (enzyme)", "chain": "MATDSWALAVDEQEAAVKSMTNLQIKEEKVKADTNGIIKTSTTAEKTDEEEKEDRAAQSLLNKLIRSNLVDNTNQVEVLQRDPNSPLYSVKSFEELRLKPQLLQGVYAMGFNRPSKIQENALPMMLAEPPQNLIAQSQSGTGKTAAFVLAMLSRVEPSDRYPQCLCLSPTYELALQTGKVIEQMGKFYPELKLAYAVRGNKLERGQKISEQIVIGTPGTVLDWCSKLKFIDPKKIKVFVLDEADVMIATQGHQDQSIRIQRMLPRNCQMLLFSATFEDSVWKFAQKVVPDPNVIKLKREEETLDTIKQYYVLCSSRDEKFQALCNLYGAITIAQAMIFCHTRKTASWLAAELSKEGHQVALLSGEMMVEQRAAVIERFREGKEKVLVTTNVCARGIDVEQVSVVINFDLPVDKDGNPDNETYLHRIGRTGRFGKRGLAVNMVDSKHSMNILNRIQEHFNKKIERLDTDDLDEIEKIAN"}}, "target": "FITC-labelled H3.1 peptide (residues 16-34) trimethylated at K27 (UniProt P68431)", "assay": "fluorescence polarisation; fluorescence anisotropy; 50 nM FITC-labelled H3.1 (16-34) peptide in 20 mM HEPES pH 7.5, 100 mM KCl, 0.1 mM DTT, 10% glycerol; DDX19A added stepwise; 23°C; fit to a simple binding equilibrium"}
{"binder": "B1", "values": [{"measurement": "Kd", "result": 82, "unit": "nM"}]}
